According to patent US20120090043A1, “TARGETS FOR RETROVIRUS ASSOCIATED DISEASES” (priority 2009, published 2012):

Legend:
[1] = test system: HTLV-1 LTR promoter transactivation by HTLV-1 Tax; assay: Transactivation assay, HTLV-1 LTR luciferase reporter with HTLV-1 Tax; type: cell-based; settings: HEK293 cells co-transfected with pHTLV1LTR-Luc, HTLV-1 Tax and the human ORF; relative luciferase activity 24 h post-transfection; positive if >=2 or <=0.5 and p<0.05
[2] = test system: HIV-1 LTR promoter transactivation by HIV-1 Tat; assay: Transactivation assay, HIV-1 LTR luciferase reporter with HIV-1 Tat; type: cell-based; settings: HEK293 cells co-transfected with pHIV1LTR-Luc, HIV-1 Tat and the human ORF; relative luciferase activity 24 h post-transfection; positive if >=2 or <=0.5 and p<0.05
How it was run: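 HEK293 cells (10^4) were calcium-phosphate co-transfected with the HIV-1 LTR-luciferase reporter plus HIV-1 Tat, or the HTLV-1 LTR-luciferase reporter plus HTLV-1 Tax, each with a human ORF expression plasmid. A hit required relative activity ≥2 or ≤0.5 with paired t-test p<0.05.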

Molecule	HTLV_LTR transactiv. [1]	HIV_LTR transactiv. [2]
LZTS2: human host interactor protein, Gene ID 84445, expressed from transfected ORF vector (protein) MAIVQTLPVPLEPAPEAATAPQAPVMGSVSSLISGRPCPGGPAPPRHHGPPGPTFFRQQDGLLRGGYEAQEPLCPAVPPRKAVPVTSFTYINEDFRTESPPSPSSDVEDAREQRAHNAHLRGPPPKLIPVSGKLEKNMEKILIRPTAFKPVLPKPRGAPSLPSFMGPRATGLSGSQGSLTQLFGGPASSSSSSSSSSAADKPLAFSGWASGCPSGTLSDSGRNSLSSLPTYSTGGAEPTTSSPGGHLPSHGSGRGALPGPARGVPTGPSHSDSGRSSSSKSTGSLGGRVAGGLLGSGTRASPDSSSCGERSPPPPPPPPSDEALLHCVLEGKLRDREAELQQLRDSLDENEATMCQAYEERQRHWQREREALREDCAAQAQRAQRAQQLLQLQVFQLQQEKRQLQDDFAQLLQEREQLERRCATLEREQRELGPRLEETKWEVCQKSGEISLLKQQLKESQAELVQKGSELVALRVALREARATLRVSEGRARGLQEAARARELELEACSQELQRHRQEAEQLREKAGQLDAEAAGLREPPVPPATADPFLLAESDEAKVQRAAAGVGGSLRAQVERLRVELQRERRRGEEQRDSFEGERLAWQAEKEQVIRYQKQLQHNYIQMYRRNRQLEQELQQLSLELEARELADLGLAEQAPCICLEEITATEI	0.23 fold change	0.49 fold change
TFIP11: human host interactor protein, Gene ID 24144, expressed from transfected ORF vector (protein) MSLSHLYRDGEGRIDDDDDERENFEITDWDLQNEFNPNRQRHWQTKEEATYGVWAERDSDDERPSFGGKRARDYSAPVNFISAGLKKGAAEEAELEDSDDEEKPVKQDDFPKDFGPRKLKTGGNFKPSQKGFAGGTKSFMDFGSWERHTKGIGQKLLQKMGYVPGRGLGKNAQGIINPIEAKQRKGKGAVGAYGSERTTQSMQDFPVVDSEEEAEEEFQKELSQWRKDPSGSKKKPKYSYKTVEELKAKGRISKKLTAPQKELSQVKVIDMTGREQKVYYSYSQISHKHNVPDDGLPLQSQQLPQSGKEAKAPGFALPELEHNLQLLIDLTEQEIIQNDRQLQYERDMVVNLFHELEKMTEVLDHEERVISNLSKVLEMVEECERRMQPDCSNPLTLDECARIFETLQDKYYEEYRMSDRVDLAVAIVYPLMKEYFKEWDPLKDCTYGTEIISKWKSLLENDQLLSHGGQDLSADAFHRLIWEVWMPFVRNIVTQWQPRNCDPMVDFLDSWVHIIPVWILDNILDQLIFPKLQKEVENWNPLTDTVPIHSWIHPWLPLMQARLEPLYSPIRSKLSSALQKWHPSDSSAKLILQPWKDVFTPGSWEAFMVKNIVPKLGMCLGELVINPHQQHMDAFYWVIDWEGMISVSSLVGLLEKHFFPKWLQVLCSWLSNSPNYEEITKWYLGWKSMFSDQVLAHPSVKDKFNEALDIMNRAVSSNVGAYMQPGARENIAYLTHTERRKDFQYEAMQERREAENMAQRGIGVAASSVPMNFKDLIETKAEEHNIVFMPVIGKRHEGKQLYTFGRIVIYIDRGVVFVQGEKTWVPTSLQSLIDMAK	0.45 fold change	0.19 fold change
TSC22D4: human host interactor protein, Gene ID 81628, expressed from transfected ORF vector (protein) MSGGKKKSSFQITSVTTDYEGPGSPGASDPPTPQPPTGPPPRLPNGEPSPDPGGKGTPRNGSPPPGAPSSRFRVVKLPHGLGEPYRRGRWTCVDVYERDLEPHSFGGLLEGIRGASGGAGGRSLDSRLELASLGLGAPTPPSGLSQGPTSWLRPPPTSPGPQARSFTGGLGQLVVPSKAKAEKPPLSASSPQQRPPEPETGESAGTSRAATPLPSLRVEAEAGGSGARTPPLSRRKAVDMRLRMELGAPEEMGQVPPLDSRPSSPALYFTHDASLVHKSPDPFGAVAAQKFSLAHSMLAISGHLDSDDDSGSGSLVGIDNKIEQAMDLVKSHLMFAVREEVEVLKEQIRELAERNAALEQENGLLRALASPEQLAQLPSSGVPRLGPPAPNGPSV	3.75 fold change	5.43 fold change
